# From the MegaScale stability set (Tsuboyama et al. 2023)
# B1: EEHEE_rd3_0130 (parent)
# chain: TKIIVNGKTFTAPTEEEAQKIAEKLAKKAGLTVHKKNGTFELK
# Variants of: B1
# Assay: folding stability dG (cDNA display proteolysis); higher = more stable
# Conditions: PBS, room temperature
row,Variant,folding stability dG
1,TKIIVNGKTFTAPTEEEAQKIAEKLALKAGLTVHKKNGTFELK [K27L],0.834 kcal/mol
2,TKIIVNGKTFTAPTEEEAQKIAEKLACKAGLTVHKKNGTFELK [K27C],1.03 kcal/mol
3,TKIIVNGKTFTAPTEEEAQKIAEKLAPKAGLTVHKKNGTFELK [K27P],-0.957 kcal/mol
4,TKIIVNGKTFTAPTEEEAQKIAEKLAMKAGLTVHKKNGTFELK [K27M],0.725 kcal/mol
5,TKIIVNGKTFTAPTEEEAQKIAEKLAFKAGLTVHKKNGTFELK [K27F],0.736 kcal/mol
6,TKIIVNGKTFTAPTEEEAQKIAEKLAGKAGLTVHKKNGTFELK [K27G],0.228 kcal/mol
7,TKIIVNGKTFTAPTEEEAQKIAELLAKKAGLTVHKKNGTFELK [K24L],1.11 kcal/mol
8,TKIIVNGKTFTAPTEEEAQKIAEYLAKKAGLTVHKKNGTFELK [K24Y],1.64 kcal/mol
9,TKIIVNGKTFTAPTEEEAQKIAERLAKKAGLTVHKKNGTFELK [K24R],1.08 kcal/mol
10,TKIIVNGKTFTAPTEEEAQKIAEELAKKAGLTVHKKNGTFELK [K24E],0.799 kcal/mol
11,TKIIVNGKTFTAPTEEEAQKIAESLAKKAGLTVHKKNGTFELK [K24S],0.873 kcal/mol
12,TKIIVNGKTFTAPTEEEAQKIAEFLAKKAGLTVHKKNGTFELK [K24F],1.47 kcal/mol
13,TKIIVNGKTFTAPTEEEAQKIAEVLAKKAGLTVHKKNGTFELK [K24V],0.829 kcal/mol
14,TKIIVNGKTFTAPTEEEAQKIAEILAKKAGLTVHKKNGTFELK [K24I],0.99 kcal/mol
15,TKIIVNGKTFTAPTEEEAQKIAEWLAKKAGLTVHKKNGTFELK [K24W],1.78 kcal/mol
16,TKIIVNGKTFTAPTEEEAQKIAEHLAKKAGLTVHKKNGTFELK [K24H],0.996 kcal/mol
17,TKIIVNGKTFTAPTEEEAQKIAETLAKKAGLTVHKKNGTFELK [K24T],0.939 kcal/mol
18,TKIIVNGKTFTAPTEEEAQKIAENLAKKAGLTVHKKNGTFELK [K24N],0.76 kcal/mol
19,TKIIVNGKTFTAPTEEEAQKIAEALAKKAGLTVHKKNGTFELK [K24A],1.06 kcal/mol
20,TKIIVNGKTFTAPTEEEAQKIAEGLAKKAGLTVHKKNGTFELK [K24G],0.617 kcal/mol

row,Variant,folding stability dG
1,TKIIVNGKTFTAPTEEEAQKIAEMLAKKAGLTVHKKNGTFELK [K24M],1.14 kcal/mol
2,TKIIVNGKTFTAPTEEEAQKIAEQLAKKAGLTVHKKNGTFELK [K24Q],0.873 kcal/mol
3,TKIIVNGKTFTAPTEEEAQKIAEDLAKKAGLTVHKKNGTFELK [K24D],0.676 kcal/mol
4,TKIIVNGKTFTAPTEEEAQWIAEKLAKKAGLTVHKKNGTFELK [K20W],0.804 kcal/mol
5,TKIIVNGKTFTAPTEEEAQYIAEKLAKKAGLTVHKKNGTFELK [K20Y],0.745 kcal/mol
6,TKIIVNGKTFTAPTEEEAQVIAEKLAKKAGLTVHKKNGTFELK [K20V],0.724 kcal/mol
7,TKIIVNGKTFTAPTEEEAQKNAEKLAKKAGLTVHKKNGTFELK [I21N],-0.725 kcal/mol
8,TKIIVNGKTFTAPTEEEAQKLAEKLAKKAGLTVHKKNGTFELK [I21L],0.99 kcal/mol
9,TKIIVNGKTFTAPTEEEAQKDAEKLAKKAGLTVHKKNGTFELK [I21D],-0.719 kcal/mol
10,TKIIVNGKTFTAPTEEEAQKFAEKLAKKAGLTVHKKNGTFELK [I21F],1.01 kcal/mol
11,TKIIVNGKTFTAPTEEEAQKKAEKLAKKAGLTVHKKNGTFELK [I21K],0.005 kcal/mol
12,TKIIVNGKTFTAPTEEEAQKWAEKLAKKAGLTVHKKNGTFELK [I21W],1.3 kcal/mol
13,TKIIVNGKTFTAPTEEEAQKTAEKLAKKAGLTVHKKNGTFELK [I21T],-0.08 kcal/mol
14,TKIIVNGKTFTAPTEEEAQKCAEKLAKKAGLTVHKKNGTFELK [I21C],1.51 kcal/mol
15,TKIIVNGKTFTAPTEEEAQKHAEKLAKKAGLTVHKKNGTFELK [I21H],-0.132 kcal/mol
16,TKIIVNGKTFTAPTEEEAQKSAEKLAKKAGLTVHKKNGTFELK [I21S],-0.174 kcal/mol
17,TKIIVNGKTFTAPTEEEAQKMAEKLAKKAGLTVHKKNGTFELK [I21M],0.647 kcal/mol
18,TKIIVNGKTFTAPTEEEAQKYAEKLAKKAGLTVHKKNGTFELK [I21Y],0.645 kcal/mol
19,TKIIVNGKTFTAPTEEEAQKAAEKLAKKAGLTVHKKNGTFELK [I21A],-0.095 kcal/mol
20,TKIIVNGKTFTAPTEEEAQKPAEKLAKKAGLTVHKKNGTFELK [I21P],-0.76 kcal/mol

row,Variant,folding stability dG
1,TKIIVNGKTFTAPTEEEAQKRAEKLAKKAGLTVHKKNGTFELK [I21R],0.152 kcal/mol
2,TKIIVNGKTFTAPTEEEAQKQAEKLAKKAGLTVHKKNGTFELK [I21Q],-0.043 kcal/mol
3,TKIIVNGKTFTAPTEEEAQKEAEKLAKKAGLTVHKKNGTFELK [I21E],-0.19 kcal/mol
4,TKIIVNGKTFTAPTEEEAQKVAEKLAKKAGLTVHKKNGTFELK [I21V],0.46 kcal/mol
5,TKIIVNGKTFTAPTEEEAQKIWEKLAKKAGLTVHKKNGTFELK [A22W],0.017 kcal/mol
6,TKIIVNGKTFTAPTEEEAQKIFEKLAKKAGLTVHKKNGTFELK [A22F],0.168 kcal/mol
7,TKIIVNGKTFTAPTEEEAQKIVEKLAKKAGLTVHKKNGTFELK [A22V],0.71 kcal/mol
8,TKIIVNGKTFTAPTEEEAQKIIEKLAKKAGLTVHKKNGTFELK [A22I],0.601 kcal/mol
9,TKIIVNGKTFTAPTEEEAQKIQEKLAKKAGLTVHKKNGTFELK [A22Q],-0.657 kcal/mol
10,TKIIVNGKTFTAPTEEEAQKILEKLAKKAGLTVHKKNGTFELK [A22L],0.301 kcal/mol
11,TKIIVNGKTFTAPTEEEAQKICEKLAKKAGLTVHKKNGTFELK [A22C],0.374 kcal/mol
12,TKIIVNGKTFTAPTEEEAQKIGEKLAKKAGLTVHKKNGTFELK [A22G],-0.83 kcal/mol
13,TKIIVNGKTFTAPTEEEAQKIHEKLAKKAGLTVHKKNGTFELK [A22H],-0.772 kcal/mol
14,TKIIVNGKTFTAPTEEEAQKIMEKLAKKAGLTVHKKNGTFELK [A22M],0.143 kcal/mol
15,TKIIVNGKTFTAPTEEEAQKIEEKLAKKAGLTVHKKNGTFELK [A22E],-0.91 kcal/mol
16,TKIIVNGKTFTAPTEEEAQKISEKLAKKAGLTVHKKNGTFELK [A22S],0.153 kcal/mol
17,TKIIVNGKTFTAPTEEEAQKIREKLAKKAGLTVHKKNGTFELK [A22R],-0.631 kcal/mol
18,TKIIVNGKTFTAPTEEEAQKITEKLAKKAGLTVHKKNGTFELK [A22T],-0.186 kcal/mol
19,TKIIVNGKTFTAPTEEEAQKIYEKLAKKAGLTVHKKNGTFELK [A22Y],-0.256 kcal/mol
